Assay [1] deals with Follicle Stimulating Hormone (FSH) (UniProt P01215). Briefly: i-STAT sandwich cartridge, 0.4 mIU/L TSH plus FSH; row Ab capture; detection Ab: 5409.
The target in assay [2] is Thyroid Stimulating Hormone (TSH) (UniProt P01215). Briefly: FRET competition, unlabelled Ab pre-bound to Alexa488 antigen; competitor: BHQ-labelled TSH Ab 544.
Assay [3] shares this target. The assay can be described thus: FRET competition, unlabelled Ab pre-bound to Alexa488 antigen; competitor: BHQ-labelled 414B.
For assay [4] the target is unchanged. The assay can be described thus: i-STAT sandwich cartridge with TSH; row Ab on capture beads; detection conjugate: 5409-ALP.
Assay [5] concerns the target Follicle Stimulating Hormone (FSH) (UniProt P01215). Briefly: i-STAT sandwich cartridge, 0.4 mIU/L TSH plus FSH; row Ab capture; detection Ab: TSH Ab 544.
Assay [6] addresses Thyroid Stimulating Hormone (TSH) (UniProt P01215). Briefly: FRET competition, unlabelled Ab pre-bound to Alexa488 antigen; competitor: BHQ-labelled ME130.
For assay [7] the target is unchanged. Briefly: FRET quenching titration, BHQ-10 antibody with Alexa Fluor 488 antigen, in solution.
The target in assay [8] is Chorionic Gonadotropin (CG) (UniProt P01215). Described as above.
The target of assay [9] is Luteinizing Hormone (LH) (UniProt P01215). The description is as above.
In assay [10] the target is Follicle Stimulating Hormone (FSH) (UniProt P01215). The description is as above.
The target of assay [11] is Thyroid Stimulating Hormone (TSH) (UniProt P01215). The assay can be described thus: FRET competition, unlabelled Ab pre-bound to Alexa488 antigen; competitor: BHQ-labelled M4.
The target is the same in assay [12]. The assay can be described thus: i-STAT sandwich cartridge with TSH; row Ab on capture beads; detection conjugate: M4-ALP.
Assay [13] concerns the target Chorionic Gonadotropin (CG) (UniProt P01215). The assay can be described thus: i-STAT sandwich cartridge, 0.4 mIU/L TSH plus CG; row Ab capture; detection Ab: TSH Ab 544.
Assay [14] concerns the target Thyroid Stimulating Hormone (TSH) (UniProt P01215). Briefly: FRET competition, unlabelled Ab pre-bound to Alexa488 antigen; competitor: BHQ-labelled 5409.
Assay [15] has the same target. The assay can be described thus: FRET competition, unlabelled Ab pre-bound to Alexa488 antigen; competitor: BHQ-labelled T25C.
For assay [16] the target is unchanged. Briefly: i-STAT sandwich cartridge with TSH; row Ab on capture beads; detection conjugate: TSH Ab 544-ALP.
Assay [17] deals with Chorionic Gonadotropin (CG) (UniProt P01215). The assay can be described thus: i-STAT sandwich cartridge, 0.4 mIU/L TSH plus CG; row Ab capture; detection Ab: 5409.
For assay [18], the target named is Luteinizing Hormone (LH) (UniProt P01215). Briefly: i-STAT sandwich cartridge, 0.4 mIU/L TSH plus LH; row Ab capture; detection Ab: 5409.
The target is the same in assay [19]. The assay can be described thus: i-STAT sandwich cartridge, 0.4 mIU/L TSH plus LH; row Ab capture; detection Ab: TSH Ab 544.
The target of assay [20] is Thyroid Stimulating Hormone (TSH) (UniProt P01215). Briefly: i-STAT sandwich cartridge with TSH; row Ab on capture beads; detection conjugate: T25C-ALP.
The target is the same in assay [21]. Briefly: i-STAT sandwich cartridge with TSH; row Ab on capture beads; detection conjugate: ME130-ALP.
The target in assay [22] is Luteinizing Hormone (LH) (UniProt P01215). The assay can be described thus: i-STAT sandwich cartridge, 0.4 mIU/L TSH plus LH; row Ab capture; detection Ab: T25C.
For assay [23] the target is unchanged. Briefly: i-STAT sandwich cartridge, 0.4 mIU/L TSH plus LH; row Ab capture; detection Ab: ME130.
Assay [24] addresses Follicle Stimulating Hormone (FSH) (UniProt P01215). The assay can be described thus: i-STAT sandwich cartridge, 0.4 mIU/L TSH plus FSH; row Ab capture; detection Ab: T25C.
Assay [25] deals with Chorionic Gonadotropin (CG) (UniProt P01215). The assay can be described thus: i-STAT sandwich cartridge, 0.4 mIU/L TSH plus CG; row Ab capture; detection Ab: T25C.
For assay [26] the target is unchanged. Briefly: i-STAT sandwich cartridge, 0.4 mIU/L TSH plus CG; row Ab capture; detection Ab: ME130.
Assay [27] deals with Follicle Stimulating Hormone (FSH) (UniProt P01215). The assay can be described thus: i-STAT sandwich cartridge, 0.4 mIU/L TSH plus FSH; row Ab capture; detection Ab: ME130.
Assay [28] has as its target Thyroid Stimulating Hormone (TSH) (UniProt P01215). Briefly: i-STAT sandwich cartridge with TSH; row Ab on capture beads; detection conjugate: 414B-ALP.
Assay [29] deals with Follicle Stimulating Hormone (FSH) (UniProt P01215). The assay can be described thus: i-STAT sandwich cartridge, 0.4 mIU/L TSH plus FSH; row Ab capture; detection Ab: 414B.
For assay [30], the target named is Chorionic Gonadotropin (CG) (UniProt P01215). Briefly: i-STAT sandwich cartridge, 0.4 mIU/L TSH plus CG; row Ab capture; detection Ab: 414B.
The target of assay [31] is Luteinizing Hormone (LH) (UniProt P01215). The assay can be described thus: i-STAT sandwich cartridge, 0.4 mIU/L TSH plus LH; row Ab capture; detection Ab: 414B.
Assay [32] shares this target. Briefly: LH-detecting i-STAT cartridge (LH capture, 414B detection), polystyrene LH 5304 scavenger beads added.

As a reminder, the pKd is the Kd on a negative log10 scale, so that one unit is a factor of ten. A high value points to a low Kd.

pKd: −log10 of the molar value.

As for “Seradyn anti-alpha-LH monoclonal antibody Cat#MIT0414B, clone BB3.1.3”, the FSH CR (%) (cross reactivity) came to 260% in assay [1] and 219% in [5]. The relative fluorescence (relative (same pair = 1.0)) was found to be 0.83 in assay [2]; 1 in [3]; 0.86 in assay [6]; 0.75 in assay [11]; 0.81 in assay [14]; 0.76 in assay [15]. Moreover, the electrochemical current (sandwich signal) in [4] was determined as 40.3 nA; in assay [12], 41.3 nA; in [16], 10.2 nA. Besides, the negative-log Kd (pKd) is 10.40 in [7], 10.30 in [8], 10.30 in the assay with Luteinizing Hormone (LH) [9] and 10.00 in assay [10]. Moreover, the CG CR (%) (cross reactivity) in assay [13] turned out to be 39.2%; in [17] it was 84.6%. Also, the LH CR (%) (cross reactivity) in the assay with Luteinizing Hormone (LH) [18] was 348%; with Luteinizing Hormone (LH) [19], 467%.

“Fitzgerald 10C-CR2151M4 TSH mouse monoclonal antibody, clone 157155”: the relative fluorescence (relative (same pair = 1.0)) in assay [2] was 0.98; in assay [3], 0.9; in assay [6], 0.76; in assay [11], 1; in [14], 0.94; in assay [15], 0.74. For the same substance, the electrochemical current (sandwich signal) in assay [4] was determined as 20.7 nA; in [20], 22.5 nA; in assay [21], 39.9 nA; in [16], 0 nA. For the same substance, the negative logarithm of the Kd (pKd) is 9.74 in [7], 6.26 in assay [8], 6.52 in the assay with Luteinizing Hormone (LH) [9] and 6.68 in assay [10].

In the case of “Biospacific Cat#5409 SPTNE-5 TSH mouse monoclonal antibody”, the relative fluorescence (relative (same pair = 1.0)) in assay [2] came out at 0.93; in assay [3] it was 0.88; in assay [6], 0.78; in assay [11] it was 0.9; in [14] it was 1; in [15] it was 0.78. Further, the figures for the LH CR (%) (cross reactivity) with Luteinizing Hormone (LH) [22] and with Luteinizing Hormone (LH) [23] were 3.76% and 10.1%, respectively. In addition, the FSH CR (%) (cross reactivity) in assay [24] came to 0.65%; in assay [27] it was 2.43%. Moreover, the CG CR (%) (cross reactivity) in assay [25] was 0.96%; in assay [26], 0.78%. The electrochemical current (sandwich signal) came out at 34.6 nA in assay [20], 15.2 nA in [12], 53.6 nA in [21] and 1.41 nA in assay [16]. In addition, the pKd in [7] was 10.00; in [8] it was 6.30; in the assay with Luteinizing Hormone (LH) [9], 6.00; in [10] it was 6.00.

Consider “Fitzgerald Cat#10-T25C TSH mouse monoclonal antibody, clone M94206”, for which the FSH CR (%) (cross reactivity) in [1] came out at 6.25%. Moreover, the relative fluorescence (relative (same pair = 1.0)) turned out to be 0.97 in [2]; 0.97 in assay [3]; 0.97 in assay [6]; 0.92 in assay [11]; 0.95 in assay [14]; 1 in [15]. The electrochemical current (sandwich signal) was determined as 49.7 nA in assay [4]; 0.82 nA in [28]; 40.9 nA in assay [12]; 0.68 nA in assay [21]; 0.83 nA in assay [16]. Besides, the negative-log Kd (pKd) is 10.10 in [7], 7.40 in assay [8], 7.46 with Luteinizing Hormone (LH) [9] and 6.52 in assay [10]. The CG CR (%) (cross reactivity) in assay [17] was 13.7%. The LH CR (%) (cross reactivity) with Luteinizing Hormone (LH) [18] came to 9.89%.

As for “AbCam ME-130 (ab9390) TSH mouse monoclonal antibody”, in assay [1], the FSH CR (%) (cross reactivity) came to 3.9%. Also, the relative fluorescence (relative (same pair = 1.0)) is 0.82 in assay [2]; 0.99 in assay [3]; 1 in assay [6]; 0.77 in assay [11]; 0.82 in assay [14]; 0.88 in [15]. The electrochemical current (sandwich signal) in [4] was 54.7 nA; in assay [20], 0.1 nA; in [12], 50.5 nA; in assay [16] it was 10.8 nA. The pKd was 10.40 in assay [7], 7.35 in assay [8], 7.27 with Luteinizing Hormone (LH) [9] and 7.15 in assay [10]. Further, the CG CR (%) (cross reactivity) in assay [17] stood at 11.8%. The LH CR (%) (cross reactivity) with Luteinizing Hormone (LH) [18] turned out to be 11.1%.

Turning to “TSH Ab 544 (Abbott Diagnostics Division) (antibody)”, the relative fluorescence (relative (same pair = 1.0)) in assay [2] was 1; in assay [3], 0.89; in [6] it was 0.72; in assay [11], 0.92; in assay [14], 0.96; in assay [15] it was 0.71. For the same substance, the electrochemical current (sandwich signal) worked out at 7.98 nA in [4]; 25 nA in [28]; 22.4 nA in assay [20]; 0.11 nA in assay [12]; 34.9 nA in assay [21]. In addition, the FSH CR (%) (cross reactivity) in [29] turned out to be 7.15%. The negative logarithm of the Kd (pKd) in assay [7] is 8.88; in assay [8] it was 6.68; with Luteinizing Hormone (LH) [9], 6.00; in assay [10], 6.00. For the same substance, the CG CR (%) (cross reactivity) in assay [30] came out at 117%. Besides, the LH CR (%) (cross reactivity) with Luteinizing Hormone (LH) [31] is 11.8%.

In the case of “Biospacific LH 5304 monoclonal antibody (mus beta-LH, Catalog #5304 SP-5)”, the signal left after scavenger beads (% of signal without beads) with Luteinizing Hormone (LH) [32] came out at 4%.

The record behind these values is patent publication US9068994.
